Experimental data: publication PMC11417369, “DNA sequence and chromatin differentiate sequence-specific transcription factor binding in the human malaria parasite Plasmodium falciparum”
Positions count from the first letter of the chain named.

T1: PF3D7_0420300 D1 (Plasmodium falciparum, UniProt Q8I1N6 1956-2015)
T1 sequence: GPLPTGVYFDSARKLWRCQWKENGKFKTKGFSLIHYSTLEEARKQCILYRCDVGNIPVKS

B1: CACACA_negctrl_site916 (dsDNA)
DNA 1: TTTTTAAATAACCTATATATTATTATGAAACATAAA
DNA 2: TTTATGTTTCATAATAATATATAGGTTATTTAAAAA
B2: CACACA_negctrl_site1078 (dsDNA)
DNA 1: TAAATTCTTTAAAACTTTAAAACAAAAAAAAAAAAA
DNA 2: TTTTTTTTTTTTTGTTTTAAAGTTTTAAAGAATTTA
B3: CACACA_negctrl_site1137 (dsDNA)
DNA 1: ATTATAAAAGAATTTTTTTTTATTTCATTAAAATAT
DNA 2: ATATTTTAATGAAATAAAAAAAAATTCTTTTATAAT
B4: CACACA_negctrl_site930 (dsDNA)
DNA 1: ACATATATATATATATATATATATATATATTCTTAA
DNA 2: TTAAGAATATATATATATATATATATATATATATGT
B5: CACACA_negctrl_site1550 (dsDNA)
DNA 1: TAAAATTAATAAAATATTTTCACTTAATATATATAA
DNA 2: TTATATATATTAAGTGAAAATATTTTATTAATTTTA
B6: CACACA_negctrl_site571 (dsDNA)
DNA 1: TTTGTAATAAACTACTTTTTTTTTTTTTTTTTTTTT
DNA 2: AAAAAAAAAAAAAAAAAAAAAGTAGTTTATTACAAA
B7: CACACA_negctrl_site1696 (dsDNA)
DNA 1: TTCCTTCAAAATTTAAGTAATAAGATAAAAATATAA
DNA 2: TTATATTTTTATCTTATTACTTAAATTTTGAAGGAA
B8: CACACA_negctrl_site1331 (dsDNA)
DNA 1: AATATAATCTTTCAAAAGAAAAAGACTTCATGAAAA
DNA 2: TTTTCATGAAGTCTTTTTCTTTTGAAAGATTATATT
B9: CACACA_negctrl_site1833 (dsDNA)
DNA 1: TAATATTTTTATTATTAGAATTGTATATGTTTAATA
DNA 2: TATTAAACATATACAATTCTAATAATAAAAATATTA
B10: CACACA_negctrl_site309 (dsDNA)
DNA 1: TTATTCCTTTTCCTTTTTTTTTTTTAACCAAAAAAA
DNA 2: TTTTTTTGGTTAAAAAAAAAAAAGGAAAAGGAATAA
B11: CACACA_negctrl_site521 (dsDNA)
DNA 1: TAGTTCTTTTAATTTAGTATTATACAATATTGGAAA
DNA 2: TTTCCAATATTGTATAATACTAAATTAAAAGAACTA
B12: CACACA_site2222 (dsDNA)
DNA 1: GGAAAAAATATATGCACACCCCCCAAAAAAAAAAAA
DNA 2: TTTTTTTTTTTTGGGGGGTGTGCATATATTTTTTCC
B13: CACACA_negctrl_site232 (dsDNA)
DNA 1: AAACAAAATTTATTTCAAAGTTAATAATTTTTATGT
DNA 2: ACATAAAAATTATTAACTTTGAAATAAATTTTGTTT
B14: CACACA_negctrl_site165 (dsDNA)
DNA 1: TCTCAAGTTGTTAAAAAATAAAAACAATAAATCTAA
DNA 2: TTAGATTTATTGTTTTTATTTTTTAACAACTTGAGA
B15: CACACA_site2373 (dsDNA)
DNA 1: ATGTTCTTTAAAACCACACACCCCCCAACCCCCCTC
DNA 2: GAGGGGGGTTGGGGGGTGTGTGGTTTTAAAGAACAT
B16: CACACA_negctrl_site1120 (dsDNA)
DNA 1: TCTCAAAAAAAAAAAAAAAAAAAAAAATTAAAAAAT
DNA 2: ATTTTTTAATTTTTTTTTTTTTTTTTTTTTTTGAGA
B17: CACACA_negctrl_site10 (dsDNA)
DNA 1: AAATCACAAAAAAAAAAAAAAATATATATATATATA
DNA 2: TATATATATATATATTTTTTTTTTTTTTTGTGATTT
B18: CACACA_negctrl_site1280 (dsDNA)
DNA 1: TTATTAAGTAAATCACATTTAATTTTTTTTTTTTTT
DNA 2: AAAAAAAAAAAAAATTAAATGTGATTTACTTAATAA
B19: CACACA_negctrl_site60 (dsDNA)
DNA 1: TTATAGGTTCTATACATATATTTATATATGTACAGA
DNA 2: TCTGTACATATATAAATATATGTATAGAACCTATAA
B20: CACACA_negctrl_site1272 (dsDNA)
DNA 1: ATTTTTTTTTTTTTTTTTTTTTTTTAGATTAAGAAA
DNA 2: TTTCTTAATCTAAAAAAAAAAAAAAAAAAAAAAAAT
B21: CACACA_negctrl_site1320 (dsDNA)
DNA 1: TTTTAAAACAATGAGATTCCTTTCTTTTTTTCTTTT
DNA 2: AAAAGAAAAAAAGAAAGGAATCTCATTGTTTTAAAA
B22: CACACA_negctrl_site514 (dsDNA)
DNA 1: AGATTTCAAGGTAATAGATCAATTTTAATTTGTAAA
DNA 2: TTTACAAATTAAAATTGATCTATTACCTTGAAATCT
B23: CACACA_negctrl_site681 (dsDNA)
DNA 1: CACAAAGGTCTGAAATTTTAGGGGTGCCTGGGACTA
DNA 2: TAGTCCCAGGCACCCCTAAAATTTCAGACCTTTGTG
B24: CACACA_site8429 (dsDNA)
DNA 1: TAAGAAATAAATAGTACACACATAGACACCCACCCA
DNA 2: TGGGTGGGTGTCTATGTGTGTACTATTTATTTCTTA
B25: CACACA_negctrl_site1763 (dsDNA)
DNA 1: AAAAAAAAATATACATATATATATATATATATATAT
DNA 2: ATATATATATATATATATATATGTATATTTTTTTTT
B26: CACACA_negctrl_site510 (dsDNA)
DNA 1: TAATATCTAAAAAATATATTTTTTATTTTTTATTAA
DNA 2: TTAATAAAAAATAAAAAATATATTTTTTAGATATTA
B27: CACACA_negctrl_site1830 (dsDNA)
DNA 1: ATGGACATTTTATAAATCACAATGGATATTTTATAA
DNA 2: TTATAAAATATCCATTGTGATTTATAAAATGTCCAT
B28: CACACA_negctrl_site307 (dsDNA)
DNA 1: TATTCTATAAATATATTTTTTTAATTTTTTATTTTA
DNA 2: TAAAATAAAAAATTAAAAAAATATATTTATAGAATA
B29: CACACA_negctrl_site285 (dsDNA)
DNA 1: TATTATGTCTAAAATAACATATTAATATATTATTTC
DNA 2: GAAATAATATATTAATATGTTATTTTAGACATAATA
B30: CACACA_site8825 (dsDNA)
DNA 1: AAAAAAGATAATTATGCACACACACCCACCCACCCA
DNA 2: TGGGTGGGTGGGTGTGTGTGCATAATTATCTTTTTT
B31: CACACA_site319 (dsDNA)
DNA 1: TATGTAACCTGTTTTACACACCCCCACCCCCCTCTT
DNA 2: AAGAGGGGGGTGGGGGTGTGTAAAACAGGTTACATA
B32: CACACA_negctrl_site1218 (dsDNA)
DNA 1: TAATTTTTTTTTTTTTTTTTTTTTTTTTTTTTTTTA
DNA 2: TAAAAAAAAAAAAAAAAAAAAAAAAAAAAAAAATTA
B33: CACACA_negctrl_site892 (dsDNA)
DNA 1: TTAATATATAATAAATTTTTTTTTTTTTTTTTTTTT
DNA 2: AAAAAAAAAAAAAAAAAAAAATTTATTATATATTAA
B34: CACACA_negctrl_site558 (dsDNA)
DNA 1: TTTTTTATATTAAATGAAGAATATACAAAATTTTAA
DNA 2: TTAAAATTTTGTATATTCTTCATTTAATATAAAAAA
B35: CACACA_negctrl_site27 (dsDNA)
DNA 1: TTTTTTGGGTAAAATTATAAAATATGTATATATAAA
DNA 2: TTTATATATACATATTTTATAATTTTACCCAAAAAA
B36: CACACA_negctrl_site1348 (dsDNA)
DNA 1: TTATTATCATCAAATCAAAAAATTCTTTTACCTGTT
DNA 2: AACAGGTAAAAGAATTTTTTGATTTGATGATAATAA
B37: CACACA_negctrl_site219 (dsDNA)
DNA 1: GCAAAACATTTTTAAAATAAAAATAATAAAATATAT
DNA 2: ATATATTTTATTATTTTTATTTTAAAAATGTTTTGC
B38: CACACA_negctrl_site641 (dsDNA)
DNA 1: TCTTGACGAAGTAGAAGGATATATATATAAAAAAAA
DNA 2: TTTTTTTTATATATATATCCTTCTACTTCGTCAAGA
B39: CACACA_negctrl_site609 (dsDNA)
DNA 1: GTATATATATATATATATATATATATATATATATAT
DNA 2: B39 DNA 1 with G1A, T36C
B40: CACACA_negctrl_site17 (dsDNA)
DNA 1: AAAAGAAAAAAAAAAAAAAAAAAAATTAAAATATAA
DNA 2: TTATATTTTAATTTTTTTTTTTTTTTTTTTTCTTTT
B41: CACACA_negctrl_site392 (dsDNA)
DNA 1: TGGTCTTTTAAACAAAAATATAAATTTTTAAATATG
DNA 2: CATATTTAAAAATTTATATTTTTGTTTAAAAGACCA
B42: CACACA_negctrl_site553 (dsDNA)
DNA 1: TTTTTATATTATTTAATGAGAAATAATTATAAACAA
DNA 2: TTGTTTATAATTATTTCTCATTAAATAATATAAAAA
B43: CACACA_negctrl_site1522 (dsDNA)
DNA 1: TTTTTATGTTATCAAATAAATATAAATATAATTCAT
DNA 2: ATGAATTATATTTATATTTATTTGATAACATAAAAA
B44: CACACA_negctrl_site84 (dsDNA)
DNA 1: CACACTTTTTAAATTAACGCATTTCAAAAAAAATAT
DNA 2: ATATTTTTTTTGAAATGCGTTAATTTAAAAAGTGTG

What follows are binders tested against T1, PF3D7_0420300 D1 (assay: gcPBM; about 25 ug protein; PBS, 1% milk, 0.2 mg/ml BSA, salmon testes DNA, 0.03% Triton X-100). Conditions: tags: N-terminal GST (pGEX-4T-1), kept; label: surface-attached array probe.
For B1, the binding signal was 8.75 ln median PBM intensity, better of two orientations. B2 was tested, and the binding signal was 8.74 ln median PBM intensity, better of two orientations. With B3 the binding signal was 8.74 ln median PBM intensity, better of two orientations. B4 was tested, and the binding signal was 8.93 ln median PBM intensity, better of two orientations. With B5 the binding signal was 8.87 ln median PBM intensity, better of two orientations. With B6 the binding signal was 8.96 ln median PBM intensity, better of two orientations. With B7 the binding signal was 8.8 ln median PBM intensity, better of two orientations. For B8, the binding signal was 8.86 ln median PBM intensity, better of two orientations. B9 was tested, and the binding signal was 8.92 ln median PBM intensity, better of two orientations. In the case of B10, the binding signal is reported as 8.9 ln median PBM intensity, better of two orientations. With B11 the binding signal was 8.91 ln median PBM intensity, better of two orientations. B12 was tested, and the binding signal was 10.7 ln median PBM intensity, better of two orientations. With B13 the binding signal was 8.93 ln median PBM intensity, better of two orientations. B14 was tested, and the binding signal was 8.93 ln median PBM intensity, better of two orientations. In the case of B15, the binding signal is reported as 10.6 ln median PBM intensity, better of two orientations. For B16, the binding signal was 8.78 ln median PBM intensity, better of two orientations. For B17, the binding signal was 8.95 ln median PBM intensity, better of two orientations. In the case of B18, the binding signal is reported as 8.82 ln median PBM intensity, better of two orientations. With B19 the binding signal was 8.89 ln median PBM intensity, better of two orientations. B20 was tested, and the binding signal was 8.84 ln median PBM intensity, better of two orientations. With B21 the binding signal was 8.89 ln median PBM intensity, better of two orientations. For B22, the binding signal was 8.83 ln median PBM intensity, better of two orientations. For B23, the binding signal was 8.87 ln median PBM intensity, better of two orientations. In the case of B24, the binding signal is reported as 10.6 ln median PBM intensity, better of two orientations. In the case of B25, the binding signal is reported as 8.93 ln median PBM intensity, better of two orientations. In the case of B26, the binding signal is reported as 8.86 ln median PBM intensity, better of two orientations. With B27 the binding signal was 8.96 ln median PBM intensity, better of two orientations. With B28 the binding signal was 8.77 ln median PBM intensity, better of two orientations. With B29 the binding signal was 8.94 ln median PBM intensity, better of two orientations. B30 was tested, and the binding signal was 10.6 ln median PBM intensity, better of two orientations. With B31 the binding signal was 10.7 ln median PBM intensity, better of two orientations. In the case of B32, the binding signal is reported as 8.72 ln median PBM intensity, better of two orientations. With B33 the binding signal was 8.85 ln median PBM intensity, better of two orientations. For B34, the binding signal was 8.73 ln median PBM intensity, better of two orientations. With B35 the binding signal was 8.81 ln median PBM intensity, better of two orientations. With B36 the binding signal was 8.94 ln median PBM intensity, better of two orientations. With B37 the binding signal was 8.88 ln median PBM intensity, better of two orientations. In the case of B38, the binding signal is reported as 8.88 ln median PBM intensity, better of two orientations. B39 was tested, and the binding signal was 8.9 ln median PBM intensity, better of two orientations. In the case of B40, the binding signal is reported as 8.84 ln median PBM intensity, better of two orientations. With B41 the binding signal was 8.76 ln median PBM intensity, better of two orientations. With B42 the binding signal was 8.82 ln median PBM intensity, better of two orientations. With B43 the binding signal was 8.91 ln median PBM intensity, better of two orientations. With B44 the binding signal was 8.95 ln median PBM intensity, better of two orientations.
